T1: MPP6, Q9NZW5
T1 sequence (Q9NZW5 125-219, limits assumed, looked up): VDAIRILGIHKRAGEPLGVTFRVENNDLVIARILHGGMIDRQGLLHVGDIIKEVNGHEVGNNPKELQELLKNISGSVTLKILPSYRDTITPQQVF

T2: LNX2_2, Q8N448
T2 sequence (Q8N448 334-432, limits assumed, looked up): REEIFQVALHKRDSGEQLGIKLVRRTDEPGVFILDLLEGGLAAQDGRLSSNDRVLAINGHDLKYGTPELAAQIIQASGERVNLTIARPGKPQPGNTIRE

T3: DLG3_3, Q92796
T3 sequence (Q92796 374-475, limits assumed, looked up): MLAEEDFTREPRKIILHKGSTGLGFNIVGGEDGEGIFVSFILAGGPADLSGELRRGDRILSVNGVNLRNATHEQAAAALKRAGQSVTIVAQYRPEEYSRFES

T4: TJP3_3, O95049
T4 sequence (O95049 375-456, limits assumed, looked up): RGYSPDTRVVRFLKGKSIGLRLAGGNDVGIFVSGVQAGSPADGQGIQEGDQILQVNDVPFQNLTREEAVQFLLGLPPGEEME

T5: APBA1_1, Q02410
T5 sequence (Q02410 651-752, limits assumed, looked up): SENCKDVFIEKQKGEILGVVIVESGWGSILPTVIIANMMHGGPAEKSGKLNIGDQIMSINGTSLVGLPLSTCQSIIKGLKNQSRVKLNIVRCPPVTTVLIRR

T6: GRIP1_7, Q9Y3R0
T6 sequence (Q9Y3R0 999-1096, limits assumed, looked up): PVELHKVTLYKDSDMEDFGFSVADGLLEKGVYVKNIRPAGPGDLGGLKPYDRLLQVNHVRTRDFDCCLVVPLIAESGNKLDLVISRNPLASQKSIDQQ

T7: HTRA4, P83105
T7 sequence (P83105 378-476, limits assumed, looked up): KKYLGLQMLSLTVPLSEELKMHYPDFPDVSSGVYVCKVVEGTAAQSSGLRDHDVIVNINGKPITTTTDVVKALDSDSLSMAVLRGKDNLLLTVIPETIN

T8: ARHGAP21, Q5T5U3
T8 sequence (Q5T5U3 45-169, limits assumed, looked up): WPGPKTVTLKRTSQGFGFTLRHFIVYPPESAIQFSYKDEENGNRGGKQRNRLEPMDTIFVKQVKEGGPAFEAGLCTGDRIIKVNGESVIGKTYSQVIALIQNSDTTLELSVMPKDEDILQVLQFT

T9: LIN7A, O14910
T9 sequence (O14910 103-200, limits assumed, looked up): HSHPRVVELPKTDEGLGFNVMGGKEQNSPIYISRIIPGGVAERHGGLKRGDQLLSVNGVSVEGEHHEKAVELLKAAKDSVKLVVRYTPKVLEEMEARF

T10: RAPGEF6, Q8TEU7
T10 sequence (Q8TEU7 525-625, limits assumed, looked up): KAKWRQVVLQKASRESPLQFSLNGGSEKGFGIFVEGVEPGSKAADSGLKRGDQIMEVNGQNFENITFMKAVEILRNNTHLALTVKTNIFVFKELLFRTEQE

T11: APBA1_2, Q02410
T11 sequence (Q02410 742-832, limits assumed, looked up): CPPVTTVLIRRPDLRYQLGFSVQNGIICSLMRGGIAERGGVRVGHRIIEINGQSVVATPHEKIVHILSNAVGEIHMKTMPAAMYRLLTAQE

T12: SNTB1, Q13884
T12 sequence (Q13884 107-205, limits assumed, looked up): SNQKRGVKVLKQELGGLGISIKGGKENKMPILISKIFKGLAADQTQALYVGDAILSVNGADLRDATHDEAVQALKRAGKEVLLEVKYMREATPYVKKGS


Biological target: T1, MPP6, Q9NZW5
Assay: holdup assay
Set-up: key: below the threshold = too weak to quantify, mostly under pKd 3.1 to 4
Settings: plain residues with an end cap or a label only (N-terminal biotin on a linker: ado-ado)

Row | Binder | pKd
1 | SMLNRRTTPV [CACNG4, Q9UBN1] | below the threshold
2 | RQSILFSTEV [BCR, P11274] | below the threshold

Biological target: Inadl_2, Q8NI35
Sequence (Q8NI35 238-335): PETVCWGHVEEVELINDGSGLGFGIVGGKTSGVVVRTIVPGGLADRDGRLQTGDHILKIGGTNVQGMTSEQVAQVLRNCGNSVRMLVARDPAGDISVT
Assay: holdup assay
Set-up: key: below the threshold = too weak to quantify, mostly under pKd 3.1 to 4
Settings: plain residues with an end cap or a label only (N-terminal biotin on a linker: ado-ado)

Row | Binder | pKd
3 | SMLNRRTTPV [CACNG4, Q9UBN1] | below the threshold
4 | RQSILFSTEV [BCR, P11274] | below the threshold

Biological target: NOS1, P29475
Sequence (P29475 9-101): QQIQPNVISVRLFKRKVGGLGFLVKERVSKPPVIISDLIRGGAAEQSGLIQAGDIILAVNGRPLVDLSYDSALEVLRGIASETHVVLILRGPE
Assay: holdup assay
Set-up: key: below the threshold = too weak to quantify, mostly under pKd 3.1 to 4
Settings: plain residues with an end cap or a label only (N-terminal biotin on a linker: ado-ado)

Row | Binder | pKd
5 | SMLNRRTTPV [CACNG4, Q9UBN1] | 3.98
6 | RQSILFSTEV [BCR, P11274] | below the threshold

Biological target: GRID2IP_1, A4D2P6
Sequence (A4D2P6 1-87): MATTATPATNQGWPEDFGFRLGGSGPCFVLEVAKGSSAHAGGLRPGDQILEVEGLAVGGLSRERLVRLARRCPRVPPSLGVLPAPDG
Assay: holdup assay
Set-up: key: below the threshold = too weak to quantify, mostly under pKd 3.1 to 4
Settings: plain residues with an end cap or a label only (N-terminal biotin on a linker: ado-ado)

Row | Binder | pKd
7 | SMLNRRTTPV [CACNG4, Q9UBN1] | below the threshold
8 | RQSILFSTEV [BCR, P11274] | below the threshold

Biological target: NHERF4_1, Q86UT5-2
Sequence (Q86UT5 other isoform, or with tags, fused parts or gaps): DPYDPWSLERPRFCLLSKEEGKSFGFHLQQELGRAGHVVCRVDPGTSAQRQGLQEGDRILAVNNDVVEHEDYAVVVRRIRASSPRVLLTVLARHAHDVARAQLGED
Assay: holdup assay
Set-up: key: below the threshold = too weak to quantify, mostly under pKd 3.1 to 4
Settings: plain residues with an end cap or a label only (N-terminal biotin on a linker: ado-ado)

Row | Binder | pKd
9 | SMLNRRTTPV [CACNG4, Q9UBN1] | below the threshold
10 | RQSILFSTEV [BCR, P11274] | 3.68

Biological target: T2, LNX2_2, Q8N448
Assay: holdup assay
Set-up: key: below the threshold = too weak to quantify, mostly under pKd 3.1 to 4
Settings: plain residues with an end cap or a label only (N-terminal biotin on a linker: ado-ado)

Row | Binder | pKd
11 | SMLNRRTTPV [CACNG4, Q9UBN1] | below the threshold
12 | RQSILFSTEV [BCR, P11274] | 4.71

Biological target: GRASP, Q7Z6J2
Sequence (Q7Z6J2 96-193): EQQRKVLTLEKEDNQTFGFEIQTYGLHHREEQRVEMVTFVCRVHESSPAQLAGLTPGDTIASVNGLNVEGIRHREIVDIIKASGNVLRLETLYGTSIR
Assay: holdup assay
Set-up: key: below the threshold = too weak to quantify, mostly under pKd 3.1 to 4
Settings: plain residues with an end cap or a label only (N-terminal biotin on a linker: ado-ado)

Row | Binder | pKd
13 | SMLNRRTTPV [CACNG4, Q9UBN1] | 4.3
14 | RQSILFSTEV [BCR, P11274] | 5.04

Biological target: T3, DLG3_3, Q92796
Assay: holdup assay
Set-up: key: below the threshold = too weak to quantify, mostly under pKd 3.1 to 4
Settings: plain residues with an end cap or a label only (N-terminal biotin on a linker: ado-ado)

Row | Binder | pKd
15 | SMLNRRTTPV [CACNG4, Q9UBN1] | 4.77
16 | RQSILFSTEV [BCR, P11274] | 3.86

Biological target: T4, TJP3_3, O95049
Assay: holdup assay
Set-up: key: below the threshold = too weak to quantify, mostly under pKd 3.1 to 4
Settings: plain residues with an end cap or a label only (N-terminal biotin on a linker: ado-ado)

Row | Binder | pKd
17 | SMLNRRTTPV [CACNG4, Q9UBN1] | below the threshold
18 | RQSILFSTEV [BCR, P11274] | below the threshold

Biological target: DLG4_1, P78352
Sequence (P78352 62-152): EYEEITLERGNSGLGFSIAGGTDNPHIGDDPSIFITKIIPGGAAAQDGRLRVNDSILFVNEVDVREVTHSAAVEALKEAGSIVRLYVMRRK
Assay: holdup assay
Set-up: key: below the threshold = too weak to quantify, mostly under pKd 3.1 to 4
Settings: plain residues with an end cap or a label only (N-terminal biotin on a linker: ado-ado)

Row | Binder | pKd
19 | SMLNRRTTPV [CACNG4, Q9UBN1] | 4.51
20 | RQSILFSTEV [BCR, P11274] | 4.67

Biological target: NHERF2_2, Q15599
Sequence (Q15599 142-238): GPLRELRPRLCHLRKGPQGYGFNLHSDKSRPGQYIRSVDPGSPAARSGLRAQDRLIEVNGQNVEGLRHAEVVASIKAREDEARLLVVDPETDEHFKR
Assay: holdup assay
Set-up: key: below the threshold = too weak to quantify, mostly under pKd 3.1 to 4
Settings: plain residues with an end cap or a label only (N-terminal biotin on a linker: ado-ado)

Row | Binder | pKd
21 | SMLNRRTTPV [CACNG4, Q9UBN1] | below the threshold
22 | RQSILFSTEV [BCR, P11274] | below the threshold

Biological target: T5, APBA1_1, Q02410
Assay: holdup assay
Set-up: key: below the threshold = too weak to quantify, mostly under pKd 3.1 to 4
Settings: plain residues with an end cap or a label only (N-terminal biotin on a linker: ado-ado)

Row | Binder | pKd
23 | SMLNRRTTPV [CACNG4, Q9UBN1] | below the threshold
24 | RQSILFSTEV [BCR, P11274] | below the threshold

Biological target: TJP1_3, Q07157
Sequence (Q07157 416-512): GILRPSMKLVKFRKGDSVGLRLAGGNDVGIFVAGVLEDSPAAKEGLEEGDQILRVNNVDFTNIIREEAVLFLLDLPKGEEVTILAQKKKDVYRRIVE
Assay: holdup assay
Set-up: key: below the threshold = too weak to quantify, mostly under pKd 3.1 to 4
Settings: plain residues with an end cap or a label only (N-terminal biotin on a linker: ado-ado)

Row | Binder | pKd
25 | SMLNRRTTPV [CACNG4, Q9UBN1] | below the threshold
26 | RQSILFSTEV [BCR, P11274] | below the threshold

Biological target: MAGI1_1, Q96QZ7
Sequence (Q96QZ7 1-106): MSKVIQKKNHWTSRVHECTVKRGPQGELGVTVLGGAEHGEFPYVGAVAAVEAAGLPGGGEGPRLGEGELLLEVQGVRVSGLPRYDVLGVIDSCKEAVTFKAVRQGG
Assay: holdup assay
Set-up: key: below the threshold = too weak to quantify, mostly under pKd 3.1 to 4
Settings: plain residues with an end cap or a label only (N-terminal biotin on a linker: ado-ado)

Row | Binder | pKd
27 | SMLNRRTTPV [CACNG4, Q9UBN1] | below the threshold
28 | RQSILFSTEV [BCR, P11274] | below the threshold

Biological target: T6, GRIP1_7, Q9Y3R0
Assay: holdup assay
Set-up: key: below the threshold = too weak to quantify, mostly under pKd 3.1 to 4
Settings: plain residues with an end cap or a label only (N-terminal biotin on a linker: ado-ado)

Row | Binder | pKd
29 | SMLNRRTTPV [CACNG4, Q9UBN1] | below the threshold
30 | RQSILFSTEV [BCR, P11274] | below the threshold

Biological target: TJP2_1, Q9UDY2
Sequence (Q9UDY2 24-128): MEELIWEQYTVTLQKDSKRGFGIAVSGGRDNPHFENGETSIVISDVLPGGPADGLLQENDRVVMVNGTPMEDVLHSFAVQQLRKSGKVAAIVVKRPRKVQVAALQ
Assay: holdup assay
Set-up: key: below the threshold = too weak to quantify, mostly under pKd 3.1 to 4
Settings: plain residues with an end cap or a label only (N-terminal biotin on a linker: ado-ado)

Row | Binder | pKd
31 | SMLNRRTTPV [CACNG4, Q9UBN1] | 3.97
32 | RQSILFSTEV [BCR, P11274] | 3.69

Biological target: T7, HTRA4, P83105
Assay: holdup assay
Set-up: key: below the threshold = too weak to quantify, mostly under pKd 3.1 to 4
Settings: plain residues with an end cap or a label only (N-terminal biotin on a linker: ado-ado)

Row | Binder | pKd
33 | SMLNRRTTPV [CACNG4, Q9UBN1] | below the threshold
34 | RQSILFSTEV [BCR, P11274] | 4.82

Biological target: PICK1, Q9NRD5
Sequence (Q9NRD5 17-115): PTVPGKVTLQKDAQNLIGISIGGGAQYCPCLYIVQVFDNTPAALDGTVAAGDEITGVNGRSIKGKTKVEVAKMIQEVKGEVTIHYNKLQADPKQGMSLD
Assay: holdup assay
Set-up: key: below the threshold = too weak to quantify, mostly under pKd 3.1 to 4
Settings: plain residues with an end cap or a label only (N-terminal biotin on a linker: ado-ado)

Row | Binder | pKd
35 | SMLNRRTTPV [CACNG4, Q9UBN1] | below the threshold
36 | RQSILFSTEV [BCR, P11274] | below the threshold

Biological target: T8, ARHGAP21, Q5T5U3
Assay: holdup assay
Set-up: key: below the threshold = too weak to quantify, mostly under pKd 3.1 to 4
Settings: plain residues with an end cap or a label only (N-terminal biotin on a linker: ado-ado)

Row | Binder | pKd
37 | SMLNRRTTPV [CACNG4, Q9UBN1] | 3.97
38 | RQSILFSTEV [BCR, P11274] | below the threshold

Biological target: T9, LIN7A, O14910
Assay: holdup assay
Set-up: key: below the threshold = too weak to quantify, mostly under pKd 3.1 to 4
Settings: plain residues with an end cap or a label only (N-terminal biotin on a linker: ado-ado)

Row | Binder | pKd
39 | SMLNRRTTPV [CACNG4, Q9UBN1] | below the threshold
40 | RQSILFSTEV [BCR, P11274] | 3.66

Biological target: T10, RAPGEF6, Q8TEU7
Assay: holdup assay
Set-up: key: below the threshold = too weak to quantify, mostly under pKd 3.1 to 4
Settings: plain residues with an end cap or a label only (N-terminal biotin on a linker: ado-ado)

Row | Binder | pKd
41 | SMLNRRTTPV [CACNG4, Q9UBN1] | below the threshold
42 | RQSILFSTEV [BCR, P11274] | below the threshold

Biological target: NHERF4_4, Q86UT5
Sequence (Q86UT5 464-550): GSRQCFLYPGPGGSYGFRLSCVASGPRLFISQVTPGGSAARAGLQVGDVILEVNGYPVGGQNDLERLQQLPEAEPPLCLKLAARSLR
Assay: holdup assay
Set-up: key: below the threshold = too weak to quantify, mostly under pKd 3.1 to 4
Settings: plain residues with an end cap or a label only (N-terminal biotin on a linker: ado-ado)

Row | Binder | pKd
43 | SMLNRRTTPV [CACNG4, Q9UBN1] | below the threshold
44 | RQSILFSTEV [BCR, P11274] | below the threshold

Biological target: Inadl_9, Q8NI35
Sequence (Q8NI35 1530-1615): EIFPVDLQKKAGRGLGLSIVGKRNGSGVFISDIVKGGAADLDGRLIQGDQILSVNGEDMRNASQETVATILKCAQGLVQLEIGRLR
Assay: holdup assay
Set-up: key: below the threshold = too weak to quantify, mostly under pKd 3.1 to 4
Settings: plain residues with an end cap or a label only (N-terminal biotin on a linker: ado-ado)

Row | Binder | pKd
45 | SMLNRRTTPV [CACNG4, Q9UBN1] | below the threshold
46 | RQSILFSTEV [BCR, P11274] | 4.09

Biological target: T11, APBA1_2, Q02410
Assay: holdup assay
Set-up: key: below the threshold = too weak to quantify, mostly under pKd 3.1 to 4
Settings: plain residues with an end cap or a label only (N-terminal biotin on a linker: ado-ado)

Row | Binder | pKd
47 | SMLNRRTTPV [CACNG4, Q9UBN1] | 3.73
48 | RQSILFSTEV [BCR, P11274] | 4.07

Biological target: T12, SNTB1, Q13884
Assay: holdup assay
Set-up: key: below the threshold = too weak to quantify, mostly under pKd 3.1 to 4
Settings: plain residues with an end cap or a label only (N-terminal biotin on a linker: ado-ado)

Row | Binder | pKd
49 | SMLNRRTTPV [CACNG4, Q9UBN1] | 4.07
50 | RQSILFSTEV [BCR, P11274] | 4.46

— PMC9482650, “Quantitative fragmentomics allow affinity mapping of interactomes” (Nature Communications, 2022)
